Reference: publication PMC3049835 (Analytical biochemistry, 2011)

What was measured:
[1] = biological target: SphK1 (Homo sapiens, UniProt Q9NYA1); details: read-out: Km with respect to sphingosine, SphK1, previously reported; cited from earlier work
[2] = substrate: CCCCCCCCc1ccc(CCC(N)(CO)CO)cc1; assay: 96-well FlashPlate SphK assay, SphK2; format: biochemical; details: other: FlashPlate; FTY720 as selective SphK2 substrate; 37.0 °C
[3] = substrate: CCCCCCCCCCCCC/C=C/[C@@H](O)[C@@H](N)CO; assay: 96-well FlashPlate SphK assay, SphK2; format: biochemical; details: other: FlashPlate; ATP fixed at 250 μM, sphingosine 0–50 μM; 37.0 °C
[4] = substrate: Nc1ncnc2c1ncn2[C@@H]1O[C@H](COP(=O)(O)OP(=O)(O)OP(=O)(O)O)[C@@H](O)[C@H]1O; assay: purified protein, by the assay type; details: other: FlashPlate; 5–10 μM sphingosine, ATP 0–600 μM; 37.0 °C

CCCCCCCCCCCCC/C=C/[C@@H](O)[C@@H](N)CO [sphingosine, D-erythro-sphingosine]
Km [1]: 5 to 17 µM

B1: SphK2 (Homo sapiens) (protein)
chain: MNGHLEAEEQQDQRPDQELTGSWGHGPRSTLVRAKAMAPPPPPLAASTPLLHGEFGSYPARGPRFALTLTSQALHIQRLRPKPEARPRGGLVPLAEVSGCCTLRSRSPSDSAAYFCIYTYPRGRRGARRRATRTFRADGAATYEENRAEAQRWATALTCLLRGLPLPGDGEITPDLLPRPPRLLLLVNPFGGRGLAWQWCKNHVLPMISEAGLSFNLIQTERQNHARELVQGLSLSEWDGIVTVSGDGLLHEVLNGLLDRPDWEEAVKMPVGILPCGSGNALAGAVNQHGGFEPALGLDLLLNCSLLLCRGGGHPLDLLSVTLASGSRCFSFLSVAWGFVSDVDIQSERFRALGSARFTLGTVLGLATLHTYRGRLSYLPATVEPASPTPAHSLPRAKSELTLTPDPAPPMAHSPLHRSVSDLPLPLPQPALASPGSPEPLPILSLNGGGPELAGDWGGAGDAPLSPDPLLSSPPGSPKAALHSPVSEGAPVIPPSSGLPLPTPDARVGASTCGPPDHLLPPLGTPLPPDWVTLEGDFVLMLAISPSHLGADLVAAPHARFDDGLVHLCWVRSGISRAALLRLFLAMERGSHFSLGCPQLGYAAARAFRLEPLTPRGVLTVDGEQVEYGPLQAQMHPGIGTLLTGPPGCPGREP
Km [2]: 22 µM | Km [3]: 6 µM | Km [4]: 79 µM

B2: SphK1 (Homo sapiens) (protein)
chain: MSAQVLGFLRSWTPLPLAAPRGPAAAGNDAGAPAATAPGGEGEPHSRPCDARLGSTDKELKAGAAATGSAPTAPGTPWQREPRVEVMDPAGGPRGVLPRPCRVLVLLNPRGGKGKALQLFRSHVQPLLAEAEISFTLMLTERRNHARELVRSEELGRWDALVVMSGDGLMHEVVNGLMERPDWETAIQKPLCSLPAGSGNALAASLNHYAGYEQVTNEDLLTNCTLLLCRRLLSPMNLLSLHTASGLRLFSVLSLAWGFIADVDLESEKYRRLGEMRFTLGTFLRLAALRTYRGRLAYLPVGRVGSKTPASPVVVQQGPVDAHLVPLEEPVPSHWTVVPDEDFVLVLALLHSHLGSEMFAAPMGRCAAGVMHLFYVRAGVSRAMLLRLFLAMEKGRHMEYECPYLVYVPVVAFRLEPKDGKGVFAVDGELMVSEAVQGQVHPNYFWMVSGCVEPPPSWKPQQMPPPEEPL
Km [4]: 125 µM
